Experimental data from the supplement of paper PMC9732359.
± gives the uncertainty stated by the source.

Assay: protein stability index of a GFP-peptide fusion (yeast GPS) (PSI 1-4); higher = more stable; sorted into four equal gates, so the index is relative within each strain
Method in brief: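 Peptides tiling yeast proteins in 17-residue segments were fused downstream of GFP, with Cherry expressed from the same plasmid. As a pooled library in yeast, mid-log cultures grown in leucine-free medium were sorted into four equal gates by GFP/Cherry fluorescence ratio. Gate plasmids were PCR-amplified and Illumina-sequenced, and barcodes linked reads to strains. Each peptide received a protein stability index equal to the sum of each gate's read frequency times its gate number.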

Sequence | protein stability index (doa10∆) | protein stability index (pdr5∆) | protein stability index (san1∆) | protein stability index (ubr1∆)
DNFDYFNQRDGEHEKSN [MED1] | 2.86 ± 0.098 | 3 ± 0.2 | 3.19 ± 0.15 | 3.56 ± 0.14
ADLRPLQIKSIREIDVT [RPS7B] | – | 2.72 ± 0.26 | 2.53 ± 0.23 | 2.88 ± 0.1
ESGSTPISISNAPTFNP [YAR002W/NUP60] | 2.25 ± 0.067 | 2.64 ± 0.061 | 1.98 ± 0.077 | 2.63 ± 0.058
GKKSSSSTKDYLTPPHE [RET1] | 3.72 ± 0.27 | – | 3.52 ± 0.22 | 2.85 ± 0.18
KMDFSSKEGQYKAKIKE [YIL149C/MLP2] | 3.2 ± 0.074 | 3.27 ± 0.071 | 3.17 ± 0.063 | 3.16 ± 0.048
TSLKKIKDEIDDPFTKI [SWI1] | 3.41 ± 0.17 | 3.24 ± 0.22 | – | 3.49 ± 0.13
FKYVEDRFPLKLREPVA [ITC1] | 2.42 ± 0.094 | – | 1.81 ± 0.26 | 2.73 ± 0.093
NSIWGSSLRKNASGNKR [ITC1] | 1.6 ± 0.062 | 2.12 ± 0.097 | 2.5 ± 0.11 | 1.86 ± 0.044
TRFEVELEFIQSLANIQ [SOH1] | 2.15 ± 0.082 | 2.29 ± 0.061 | 2.14 ± 0.1 | 2.5 ± 0.058
VQKILPLSNEVFEISEN [SWI1] | 2.13 ± 0.043 | 1.85 ± 0.039 | 1.73 ± 0.06 | 2.17 ± 0.035
QFISSRQFEVKQLQLAM [POP1] | 2.24 ± 0.051 | 2.45 ± 0.051 | 2.1 ± 0.067 | 1.74 ± 0.037
AHIEKQSLDTIGGSDAA [RPO21] | 3.18 ± 0.097 | 3.25 ± 0.11 | 3.32 ± 0.12 | 2.95 ± 0.095
FPPNLEKGENPSCVYNL [UBP6] | 2.79 ± 0.1 | 1.7 ± 0.088 | 1.15 ± 0.16 | 1.11 ± 0.064
LRNKIAGYTTHLMKRIQ [RPS17A] | 2.44 ± 0.12 | 3.19 ± 0.13 | 2.31 ± 0.12 | 2.99 ± 0.076
AADTSIVEQDKSMELFY [YJL039C/NUP192] | 2.07 ± 0.11 | 2.61 ± 0.13 | 2.63 ± 0.084 | 2.73 ± 0.2
SGQTFAYGVLDSNYKWD [PRE2] | 2.39 ± 0.075 | 2.76 ± 0.098 | 1.85 ± 0.14 | 2.7 ± 0.11
NISGEFFRNKLKYHDFL [RPL16B] | 2.35 ± 0.063 | 2.18 ± 0.068 | 2.22 ± 0.067 | 1.79 ± 0.044
ISIPKTCDEIQNFENDF [REC8] | 2.8 ± 0.077 | 2.92 ± 0.068 | 2.61 ± 0.056 | 2.85 ± 0.046
PEFAGYSKAAEPHAVSL [ASC1] | 2.51 ± 0.073 | 2.44 ± 0.063 | 2.17 ± 0.068 | 2.21 ± 0.047
VTNALDNIDEKVVKAIR [NUT1] | 3.04 ± 0.16 | 2.37 ± 0.14 | 3.07 ± 0.083 | 1.61 ± 0.048
LPLNKPRLEKLINEILL [RGR1] | 2.53 ± 0.051 | 2.33 ± 0.041 | 2 ± 0.077 | 2.48 ± 0.041
IVGKKIQEFLVVIEKRR [GRR1] | 3.23 ± 0.098 | 2.9 ± 0.098 | 3.29 ± 0.073 | 3.12 ± 0.055
NAARKAEASGEAADEAD [RPS9A] | 3.29 ± 0.24 | 3.03 ± 0.29 | – | 3.47 ± 0.11
TDTSTTATAATNGNNAG [MED6] | 3.2 ± 0.29 | 3.06 ± 0.13 | 3.39 ± 0.091 | 3.29 ± 0.096
NDIHLRFMRFLADRDEF [ECM29] | 2.44 ± 0.065 | 2.24 ± 0.059 | 2.21 ± 0.16 | 2.5 ± 0.038
LERFNKRADISKRRITE [SMC1] | 3.14 ± 0.14 | 2.7 ± 0.074 | 2.96 ± 0.17 | 2.99 ± 0.13

Sequence | protein stability index (doa10∆) | protein stability index (pdr5∆) | protein stability index (san1∆) | protein stability index (ubr1∆)
FLPKLNSVRNSLLLAHF [NUT1] | 2.15 ± 0.04 | 1.5 ± 0.046 | 1.65 ± 0.07 | 1.81 ± 0.029
SNLKISLVKYPELLDSL [SWI1] | 2.76 ± 0.074 | 2.69 ± 0.058 | 2.71 ± 0.074 | 2.96 ± 0.056
EDLHEKNDSAEVRQETQ [NUT1] | 3.48 ± 0.1 | 3.28 ± 0.2 | 3.13 ± 0.083 | 3.53 ± 0.075
KEVASLPNKSTISKTVS [FAS2] | 3.09 ± 0.12 | 3.05 ± 0.12 | 3 ± 0.08 | 3.21 ± 0.14
NNSLSYHSGRLLIQGPK [ITC1] | 2.45 ± 0.054 | 2.3 ± 0.048 | 2.47 ± 0.062 | 2.93 ± 0.051
SSQPLEPLSDTEEPDLA [DSN1] | 2.74 ± 0.062 | 2.69 ± 0.06 | 3.25 ± 0.037 | 2.36 ± 0.07
QQLRRALPDVVVKGLPD [RPO31] | 2.19 ± 0.069 | 2.31 ± 0.057 | 1.93 ± 0.078 | 2.36 ± 0.083
EIKKMIITNINAIFLSS [YCG1] | 2.49 ± 0.11 | 1.94 ± 0.088 | 1.8 ± 0.081 | 1.81 ± 0.12
LSGGGHDNHGNKLGNKR [CDC53] | – | – | – | 3.65 ± 0.23
NNKNNSITTGNDNENIV [MED2] | 2.89 ± 0.046 | 2.94 ± 0.047 | 2.95 ± 0.044 | 2.99 ± 0.046
VFKATSSTDEESWFKAL [FAS1] | 2.92 ± 0.13 | 3 ± 0.15 | 2.75 ± 0.082 | 2.88 ± 0.084
IDEPIKSIMDGIHDGHI [FAS1] | 1.97 ± 0.044 | 1.87 ± 0.059 | 1.52 ± 0.094 | 1.57 ± 0.038
KCGVISPRFNVKIGDIE [RPS22A] | 3.28 ± 0.1 | 3.35 ± 0.093 | 2.78 ± 0.11 | 3.43 ± 0.079
HVNKRKRVSGTSQHSDS [YOR098C/NUP1] | 1.93 ± 0.077 | 2.31 ± 0.11 | 2.22 ± 0.1 | 1.64 ± 0.076
SELQRLSHENNVMLEKI [RPT5] | 3 ± 0.11 | 3.1 ± 0.068 | 2.89 ± 0.063 | 2.9 ± 0.051
ILVDSLTGNQLPTPTPT [SWI1] | 2.73 ± 0.066 | 2.76 ± 0.073 | 2.93 ± 0.048 | 2.73 ± 0.045
IKNLPADVSKLMYSITF [SRB2] | 2.41 ± 0.054 | 2.95 ± 0.046 | 2.38 ± 0.049 | 2.76 ± 0.047
ADKIVDEFPELKEPVED [NUT2] | 3.71 ± 0.15 | 3.52 ± 0.11 | 3.23 ± 0.27 | 3.63 ± 0.14
RLDSYKVIEQPITSETA [RPL25] | 1.94 ± 0.055 | 2.31 ± 0.079 | 2.31 ± 0.079 | 2.5 ± 0.067
LEKIHSIEVQSLPEFFT [SWI3] | 2.69 ± 0.074 | 2.53 ± 0.073 | 2.43 ± 0.12 | 2.52 ± 0.069
PNHIPSVNPSNKPIKRM [SWP82] | 2.87 ± 0.087 | 2.96 ± 0.057 | 2.75 ± 0.081 | 3.02 ± 0.042
KKRNMPLQSIPEIGNRK [SWI1] | 2.62 ± 0.041 | 2.67 ± 0.037 | 2.81 ± 0.038 | 2.63 ± 0.033
KVLQLLRLTRINSGTFV [RPL7A] | 1.8 ± 0.097 | 1.62 ± 0.093 | 1.2 ± 0.17 | 1.07 ± 0.065
TEKEEDAELMADEEEEI [ISW2] | 3.5 ± 0.18 | 3.38 ± 0.13 | 3.41 ± 0.083 | 3.34 ± 0.17
NQKTSAVAALTEVRAED [RPL8A] | 2.92 ± 0.082 | 2.94 ± 0.071 | 3.18 ± 0.058 | 2.68 ± 0.087
